Reference: patent publication US20070036799A1
Where two headings read alike, the source gives them in different places. Each block holds one substance with its values, some of them ahead of it.

Experiments:
C1q [1] = assay: SPR (BIAcore): 2B6 antibody captured on soluble CD32B (2bLAvi) on a CM-5 chip, C1q injected in a dilution series
C1q [2] = assay: SPR (BIAcore): 2B6 antibody captured on soluble CD32B (2bLAvi) on a CM-5 chip, C1q injected at 0.8-26 nM
[3] = target: soluble monomeric FcγRIIIA-linker-AVITAG (158V), biotinylated (human) (UniProt P08637); assay: SPR
Target sequence in this assay (P08637 17-203 F176V limits assumed, form in doubt): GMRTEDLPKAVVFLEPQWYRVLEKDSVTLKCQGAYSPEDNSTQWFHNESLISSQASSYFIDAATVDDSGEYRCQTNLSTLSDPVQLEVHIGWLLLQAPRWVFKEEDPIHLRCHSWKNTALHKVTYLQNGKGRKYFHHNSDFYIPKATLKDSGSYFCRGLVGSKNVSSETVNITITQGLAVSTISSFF

[4] = target: FcγRIIB-Fc fusion protein (soluble dimeric FcγRIIB) (human) (UniProt P31994); assay: ELISA
FcγRIIB-Fc fusion protein (soluble dimeric FcγRIIB) (human), sequence (P31994 43-217): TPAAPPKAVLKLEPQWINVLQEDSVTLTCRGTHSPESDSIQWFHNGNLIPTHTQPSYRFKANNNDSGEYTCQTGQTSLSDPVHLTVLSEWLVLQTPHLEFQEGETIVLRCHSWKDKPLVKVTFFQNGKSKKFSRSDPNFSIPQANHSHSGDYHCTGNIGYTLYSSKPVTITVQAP

[5] = target: soluble monomeric FcγRIIIA-linker-AVITAG (158V), biotinylated (human) (UniProt P08637); assay: ELISA
[6] = target: FcγRIIB-Fc fusion protein (soluble dimeric FcγRIIB) (human) (UniProt P31994); assay: SPR
[7] = target: FcγRIIB-Fc fusion protein (soluble dimeric FcγRIIB) (human) (UniProt P31994); assay: BIAcore, separate fits at two concentrations of FcγRIIB-Fc, average (Table 18 prints 0.085)
[8] = target: FcγRIIB-Fc fusion protein (soluble dimeric FcγRIIB) (human) (UniProt P31994); assay: SPR; remark: listed apart in the source
[9] = target: yeast-displayed wild type CH1-CH3 Fc fusion (pYD-CH1) (human) [IgG part: P01857]; assay: FACS titration on yeast, MFI, nonlinear regression
monomeric human IgG = assay: ELISA: plate coated with human IgG, receptor titrated, detection with DJ130c and anti-mouse peroxidase

C1q, sequence (P02745 23-245, chain 1 of 3): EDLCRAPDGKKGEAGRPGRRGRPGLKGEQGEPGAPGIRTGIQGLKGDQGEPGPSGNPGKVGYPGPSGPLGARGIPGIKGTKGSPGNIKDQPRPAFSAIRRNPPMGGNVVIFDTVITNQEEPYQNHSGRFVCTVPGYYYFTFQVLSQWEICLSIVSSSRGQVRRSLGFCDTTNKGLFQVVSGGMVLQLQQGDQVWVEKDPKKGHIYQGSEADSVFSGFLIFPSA
C1q, sequence (P02746 28-253, chain 2 of 3, further chain): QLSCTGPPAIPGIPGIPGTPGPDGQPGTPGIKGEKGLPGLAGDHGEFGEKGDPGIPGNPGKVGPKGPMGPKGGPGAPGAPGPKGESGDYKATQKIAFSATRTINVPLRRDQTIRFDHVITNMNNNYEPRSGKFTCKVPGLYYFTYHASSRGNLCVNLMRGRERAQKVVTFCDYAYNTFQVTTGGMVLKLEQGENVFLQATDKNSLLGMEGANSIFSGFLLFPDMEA
C1q, sequence (P02747 29-245, chain 3 of 3, further chain): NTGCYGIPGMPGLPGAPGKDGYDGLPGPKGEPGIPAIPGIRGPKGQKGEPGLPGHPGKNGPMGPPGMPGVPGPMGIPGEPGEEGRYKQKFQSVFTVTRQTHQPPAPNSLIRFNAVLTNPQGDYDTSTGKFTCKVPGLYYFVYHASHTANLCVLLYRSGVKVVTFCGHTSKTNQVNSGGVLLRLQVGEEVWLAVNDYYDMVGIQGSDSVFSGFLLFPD

Substance: 2B6 (lower panel of FIG. 36B, Fc region not labelled) (antibody)
Kd (C1q [1]): 7 nM
koff (C1q [1]): 0.06 s⁻¹

Substance: ch4-4-20 K392T, P396L (from UniProt P01857 1-330) (antibody)
Kd [3]: 84 nM

Substance: ch4-4-20 S415I, L251F (antibody)
fold vs wt [4]: 0.75 x increase
fold vs wt [5]: 0.5 x increase

Substance: chimeric 4-4-20 anti-fluorescein antibody, wild type Fc
Kd [6]: 94 nM
koff [6]: 0.094 s⁻¹
Kd [3]: 319 nM
kon [3]: 600000 M⁻¹ s⁻¹
koff [7]: 0.0847 s⁻¹
Kd [8]: 61.4 nM
koff [8]: 0.085 s⁻¹
ELISA, OD [4]: 0.4 OD
ELISA, OD [5]: 0.5 OD

Other lines, results leading:

koff (C1q [2]): 0.13 s⁻¹
Substance: 2B6 (upper panel of FIG. 36B, Fc region not labelled) (antibody)

Kd [9]: 6 nM
EC50 (read off the curve) (monomeric human IgG): 1 µg/mL
Substance: soluble FcγRIIIA tetrameric complex (from UniProt P08637 1-203) (receptor)
